Data from US10323078B2, “Isolated peptides and fragments thereof from fibrinogen for use as drugs, particularly in skin inflammatory diseases” (Universite Paris Descartes, priority 2015, dated 2019).

B1: Bß subunit: sub-unit Bß of human fibrinogen, SEQ ID NO: 1 (protein)
chain: MKRMVSWSFHKLKTMKHLLLLLLCVFLVKSQGVNDNEEGFFSARGHRPLDKKREEAPSLRPAPPPISGGGYRARPAKAAATQKKVERKAPDAGGCLHADPDLGVLCPTGCQLQEALLQQERPIRNSVDELNNNVEAVSQTSSSSFQYMYLLKDLWQKRQKQVKDNENVVNEYSSELEKHQLYIDETVNSNIPTNLRVLRSILENLRSKIQKLESDVSAQMEYCRTPCTVSCNIPVVSGKECEEIIRKGGETSEMYLIQPDSSVKPYRVYCDMNTENGGWTVIQNRQDGSVDFGRKWDPYKQGFGNVATNTDGKNYCGLPGEYWLGNDKISQLTRMGPTELLIEMEDWKGDKVKAHYGGFTVQNEANKYQISVNKYRGTAGNALMDGASQLMGENRTMTIHNGMFFSTYDRDNDGWLTSDPRKQCSKEDGGGWWYNRCHAANPNGRYYWGGQYTWDMAKHGTDDGVVWMNWKGSWYSMRKMSMKIRPFFPQQ
modifications: homo sapiens; sub-unit Bbeta of fibrinogen
B2: γ subunit: γ chain of fibrinogen (protein, UniProt P02679 27-453, looked up)
Fibrinogen gamma chain: YVATRDNCCILDERFGSYCPTTCGIADFLSTYQTKVDKDLQSLEDILHQVENKTSEVKQLIKAIQLTYNPDESSKPNMIDAATLKSRKMLEEIMKYEASILTHDSSIRYLQEIYNSNNQKIVNLKEKVAQLEAQCQEPCKDTVQIHDITGKDCQDIANKGAKQSGLYFIKPLKANQQFLVYCEIDGSGNGWTVFQKRLDGSVDFKKNWIQYKEGFGHLSPTGTTEFWLGNEKIHLISTQSAIPYALRVELEDWNGRTSTADYAMFKVGPEADKYRLTYAYFAGGDAGDAFDGFDFGDDPSDKFFTSHNGMQFSTWDNDNDKFEGNCAEQDGSGWWMNKCHAGHLNGVYYQGGTYSKASTPNGYDNGIIWATWKTRWYSMKKTTMKIIPFNRLTIGEGQQHHLGGAKQVRPEHPAETEYDSLYPEDDL
B3: KLESDVSAQMEYCRTPCTVSCNIPVVSGKECEEIIRKGGETSEMYLIQPDSSVKPYRVYCDMNTENGGWTVIQNRQDGSVDFGRKWDPYKQGFGNVATNTDGKNYCGLPGEYWLGNDKISQLTRMGPTELLIEMEDWKGDKVKAHYGGFTVQNE (protein)
chain: KLESDVSAQMEYCRTPCTVSCNIPVVSGKECEEIIRKGGETSEMYLIQPDSSVKPYRVYCDMNTENGGWTVIQNRQDGSVDFGRKWDPYKQGFGNVATNTDGKNYCGLPGEYWLGNDKISQLTRMGPTELLIEMEDWKGDKVKAHYGGFTVQNE
modifications: fragment Fg3
notes: recombinant fragment of Bß sub-unit of human fibrinogen
B4: PTELLIEMEDWKGDKVKAHYGGFTVQNEANKYQISVNKYRGTAGNALMDGASQLMGENRTMTIHNGMFFSTYDRDNDGWLTSDPRKQCSKEDGGGWWYNRCHAANPNGRYYWGGQYTWDMAKHGTDDGVVWMNWKGSWYSMRKMSMKIRPFFPQ (protein)
chain: PTELLIEMEDWKGDKVKAHYGGFTVQNEANKYQISVNKYRGTAGNALMDGASQLMGENRTMTIHNGMFFSTYDRDNDGWLTSDPRKQCSKEDGGGWWYNRCHAANPNGRYYWGGQYTWDMAKHGTDDGVVWMNWKGSWYSMRKMSMKIRPFFPQ
modifications: fragment Fg4
notes: as for B3

Tested on: Pfg
Assay: Western ligand blot with biotinylated Pfg
Format: binding, Propionibacterium acnes
Conditions: biotinylated Pfg 0.1 μg/ml; for Recognition by biotinylated Pfg after electrophoretic separation of fibrinogen: 10 μg per lane, 10% SDS-PAGE; for Recognition of GST-fused recombinant Bß fibrinogen fragments by biotinylated Pfg: E. coli total protein after IPTG induction, 12.5% SDS-PAGE
Method: FIG. 5: Binding of P. acnes surface proteins to fibrinogen. (A) Various quantities of human fibrinogen (hFg) and bovine fibrinogen (bFg) were immobilized onto a 96-well polystyrene plate at 4° C. for 18 h and incubated with biotinylated Pfg at 0.1 μg/ml for 2 h at 23° C. Bovine serum albumin (BSA) was used as negative control. Bound material was detected by using the HRP-streptavidin conjugate. Peroxidase activity was measured by using the ABTS substrate at 405 nm. Proteins (10 μg per lane) were separated by 10% SDS-PAGE and detected by (B) Commassie blue staining, and transferred to nitrocellulose membrane and incubated with (C) HRP-streptavidine alone, and (D) biotinylated Pfg (0.1 μg/ml). Lanes 1: molecular weight standards. Lane 2: BSA. Lane 3: hFg. Lane 4: bFg.
FIG. 8: Cloning of Bß human fibrinogen fragments and binding with Pfg. (A) Cloning and expression of recombinant human Bß fibrinogen fragments Fg1, Fg2, Fg3 and Fg4. Fibrinogen fragments were obtained by RT-PCR and expression plasmids were constructed as described in Materials and Methods. (B) GST-fused proteins were expressed in E. coli, fractionated by 12.5% SDS-PAGE, and detected by Coomassie blue staining (B), and incubated with biotinylated Pfg (0.1 μg/ml) as described in Materials and Methods (C).
To characterize the interaction between P. acnes and ligands, we used biotinylated molecules in quantitative and qualitative assays. In a first set of assays, ECM ligands (fibrinogen, collagens I, IV, VI and VIII) were used as labelled proteins with biotin. In a second set of assays, P. acnes surface proteins (total extract and purified Pfg) were biotinylated. For quantitative analysis, unlabeled protein were diluted into 50 mM carbonate-bicarbonate, pH 9.6 buffer to yield a protein concentration ranging from 0.01 to 50 μg/ml, and then immobilized to 96-well polystyrene plates at 4° C. overnight. The wells were rinsed three times with 0.2 ml of PBS containing 0.05% Tween-20 (PBS-Tween). Biotinylated proteins (0.01 to 16 μg/ml in PBS-Tween) were added to the wells and incubated at room temperature for 1 h. The wells were rinsed three times with 0.2 ml of PBS-Tween. Peroxidase conjugated to streptavidin (0.5 μg/ml in PBS-Tween) was added and incubated for 30 min at room temperature. After washing, bound peroxidase was detected using the chromogenic peroxidase substrate ABTS. For qualitative analysis, unlabelled protein (10-75 μg per lane) were separated by SDS-PAGE and then transferred to nitrocellulose membranes (0.45 μm pore size), as described previously (Towbin, 1979). Membranes were then saturated overnight at 4° C. in PBS containing 5% BSA, 0.05% Tween-20 (PBT buffer). Binding activity was detected by incubating the membranes with 20 ml of PBT containing biotinylated proteins (0.1 μg/ml) for 2 h at room temperature followed by three washes with PBT. Bound biotinylated proteins were detected by incubating the membrane with peroxidase conjugated to streptavidin (0.5 μg/ml in PBT) for 1 h at room temperature. After washing, bound peroxidase activity was detected using 3,3′-diaminobenzidine in the presence of CoCl2 and H2O2 (Harlow and Lane, 1988).
Since it was shown that Pfg is recognized by fibrinogen, this ECM ligand was used to analyze the nature of this interaction. First it was analyzed the ability of fibrinogen to be recognized by purified Pfg (FIG. 5). Human and bovine Fg (hFg, bFg) were immobilized to polysterene plate and the binding activity of biotinylated Pfg was measured. […] It has been shown that fibrinogen is a glycoprotein containing both N- and O-linked glycans (Debeire 1985; Reid Townsend 1982; L'Hôte 1996). […] In parallel, deglycosylation was assessed by visualization of a shift in the mobility after electrophoresis separation and Coomassie blue staining (FIG. 6A, lanes 3 and 5) and also by using the RCA-I plant lectin able to recognize ß-linked galactosyl residues in terminal position (FIG. 6C) (Green, 1987). […]

| Molecule | Recognition by biotinylated Pfg after electrophoretic separation of fibrinogen | Recognition of GST-fused recombinant Bß fibrinogen fragments by biotinylated Pfg |
| --- | --- | --- |
| B1 | strongly recognized | – |
| B2 | No recognition | – |
| B3 | – | only Fg1 was recognized |
| B4 | – | only Fg1 was recognized |
